The source of these data is paper PMC3045457, “Evolution of Acetylcholinesterase and Butyrylcholinesterase in the Vertebrates: An Atypical Butyrylcholinesterase from the Medaka Oryzias latipes” (PLoS ONE, 2011).

Series [1] addresses T1, atypical BChE from O. latipes (Oryzias latipes, UniProt D5L5S0).
T1 construct: GPI-anchored amphiphilic dimer (G2a)
T1 sequence (D5L5S0 26-589): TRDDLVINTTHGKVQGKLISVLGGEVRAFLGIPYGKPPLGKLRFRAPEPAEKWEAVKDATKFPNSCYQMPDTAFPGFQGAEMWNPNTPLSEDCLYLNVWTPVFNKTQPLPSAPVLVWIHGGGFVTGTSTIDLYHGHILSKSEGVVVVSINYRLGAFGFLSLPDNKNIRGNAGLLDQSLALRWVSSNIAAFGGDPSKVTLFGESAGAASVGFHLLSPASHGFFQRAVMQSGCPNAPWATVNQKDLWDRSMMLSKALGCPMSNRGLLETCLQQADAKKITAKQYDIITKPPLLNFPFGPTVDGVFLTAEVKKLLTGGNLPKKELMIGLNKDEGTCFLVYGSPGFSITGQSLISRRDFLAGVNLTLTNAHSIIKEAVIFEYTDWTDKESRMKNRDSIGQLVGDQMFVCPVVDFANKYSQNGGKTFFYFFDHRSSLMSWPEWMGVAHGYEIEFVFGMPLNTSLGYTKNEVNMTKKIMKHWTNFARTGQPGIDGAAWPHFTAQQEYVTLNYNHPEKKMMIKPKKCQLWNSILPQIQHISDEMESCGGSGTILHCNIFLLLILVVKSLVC
Nature of the series: Ellman assay, COS-7 extract, three-parameter logistic fit. It is filed as biochemical. The source says:
Ellman assay, COS-7 extract, three-parameter logistic fit on atypical BChE from O. latipes
For orientation: In Ellman's method for cholinesterases, released thiocholine reacts with DTNB.

Substrate in series [2]: CC(=O)SCC[N+](C)(C)C
Nature of the series: Ellman assay, COS-7 extract, fit with substrate inhibition (Km, Kss, b). It is filed as biochemical, Oryzias latipes. To be noted: 100 mM NaHPO4 pH 7, 0.3 mM DTNB, 167 mM NaCl, 258 µM Triton X-100. The source says: (§1) Ellman assay, COS-7 extract, fit with substrate inhibition (Km, Kss, b) on atypical BChE from O. latipes

Substrate in series [3]: CCCC(=O)SCC[N+](C)(C)C
The description is as above. It is filed as biochemical, Oryzias latipes. Conditions: 100 mM NaHPO4 pH 7, 0.3 mM DTNB, 167 mM NaCl, 258 µM Triton X-100.
Source text: as §1

Substrate in series [4]: CCC(=O)SCC[N+](C)(C)C
The series is described as above. It is filed as biochemical, Oryzias latipes. To be noted: 100 mM NaHPO4 pH 7, 0.3 mM DTNB, 167 mM NaCl, 258 µM Triton X-100.
Source text: as §1

Counter-ions that a name gives are not always drawn. Like-named read-outs stand apart in the source and are kept apart here.

What is called IC50 is the point on the concentration scale where inhibition reaches its midpoint. Take `C=CC[N+](C)(C)c1ccc(CCC(=O)CCc2ccc([N+](C)(C)CC=C)cc2)cc1` [BW284c51, [4-[5-[4-(dimethyl-prop-2-enyl-ammonio)phenyl]-3-oxo-pentyl]phenyl]-dimethyl-prop-2-enyl-azanium dibromide]: the IC50 in series [1] (read-out: IC50 M) was 480 µM.

For `CC(C)NP(=O)(NC(C)C)OP(=O)(NC(C)C)NC(C)C` [iso-OMPA, N-[bis(propan-2-ylamino)phosphoryloxy-(propan-2-ylamino)phosphoryl]propan-2-amine], the IC50 in series [1] (read-out: IC50 M) turned out to be 4580 µM.

In the case of `CNC(=O)Oc1ccc2c(c1)[C@]1(C)CCN(C)[C@@H]1N2C` [physostigmine, (3aS-cis)-1,2,3,3a,8,8a-hexahydro-1,3a,8-trimethylpyrrolo[2,3-b]indol-5-ol methylcarbamate], half-maximal inhibition in series [1] (IC50) required 0.0585 µM.

Take `CCN(CC)C(C)CN1c2ccccc2Sc2ccccc21` (stereo not shown) [ethopropazine, 10-(2-diethylaminopropyl) phenothiazine hydrochloride]: the IC50 in series [1] (read-out: IC50 M) stood at 0.898 µM.

B1: atypical BChE from O. latipes (Oryzias latipes) (protein)
chain: T1 sequence (D5L5S0 26-589)
notes: GPI-anchored amphiphilic dimer (G2a)
What is called Km is the substrate concentration at which the rate is half of its maximum. For orientation: kcat means the maximal rate divided by the concentration of active sites. Broadly, the kcat/Km is the second-order rate constant that governs catalysis at low substrate concentration. Take B1: the values for the Michaelis-Menten constant (Km) in series [2], in series [3] and in series [4] were 270 ± 18 µM, 72 ± 6 µM and 156 ± 15 µM, respectively. The catalytic constant (kcat) worked out at 460 ± 18.3 s⁻¹ in series [2], 117 ± 5 s⁻¹ in series [3] and 512 ± 40 s⁻¹ in series [4]. Further, the values for the kcat/Km in series [2], in series [3] and in series [4] were 1.72e+06 ± 83300 M⁻¹ s⁻¹, 1.65e+06 ± 117000 M⁻¹ s⁻¹ and 3.33e+06 ± 83300 M⁻¹ s⁻¹, respectively.
